Data on 1 protein can be found in article doi:10.1101/480269v2.

Holding throughout (test): purified protein
Settings in all cases: Mg2+ as the activating cation

Substrate in data set [1]: NC(=O)C1=CN([C@@H]2O[C@H](COP(=O)(O)OP(=O)(O)OC[C@H]3O[C@@H](n4cnc5c(N)ncnc54)[C@H](O)[C@@H]3O)[C@@H](O)[C@H]2O)C=CC1
Substrate in data set [2]: NC(=O)c1ccc[n+]([C@@H]2O[C@H](COP(=O)(O)OP(=O)(O)OC[C@H]3O[C@@H](n4cnc5c(N)ncnc54)[C@H](O)[C@@H]3O)[C@@H](O)[C@H]2O)c1
Substrate in data set [3]: NC(=O)c1ccc[n+]([C@@H]2O[C@H](COP(=O)([O-])O)[C@@H](O)[C@H]2O)c1
Substrate in data set [4]: Nc1ncnc2c1ncn2[C@@H]1O[C@H](COP(=O)(O)O)[C@@H](O)[C@H]1O

B1: UshA (Escherichia coli K-12) (protein)
chain: YEQDKTYKITVLHTNDHHGHFWRNEYGEYGLAAQKTLVDGIRKEVAAEGGSVLLLSGGDINTGVPESDLQDAEPDFRGMNLVGYDAMAIGNHEFDNPLTVLRQQEKWAKFPLLSANIYQKSTGERLFKPWALFKRQDLKIAVIGLTTDDTAKIGNPEYFTDIEFRKPADEAKLVIQELQQTEKPDIIIAATHMGHYDNGEHGSNAPGDVEMARALPAGSLAMIVGGHSQDPVCMAAENKKQVDYVPGTPCKPDQQNGIWIVQAHEWGKYVGRADFEFRNGEMKMVNYQLIPVNLKKKVTWEDGKSERVLYTPEIAENQQMISLLSPFQNKGKAQLEVKIGETNGRLEGDRDKVRFVQTNMGRLILAAQMDRTGADFAVMSGGGIRDSIEAGDISYKNVLKVQPFGNVVVYADMTGKEVIDYLTAVAQMKPDSGAYPQFANVSFVAKDGKLNDLKIKGEPVDPAKTYRMATLNFNATGGDGYPRLDNKPGYVNTGFIDAEVLKAYIQKSSPLDVSVYEPKGEVSWQ
In the case of B1, the Km in “purified protein [1]” stood at 7.0 ± 0.8 µM; in the data set “purified protein [2]” it was 5.3 ± 0.6 µM; in the data set “purified protein [3]”, 11.1 ± 1.3 µM; in “purified protein [4]” it was 1.2 ± 0.1 µM. In addition, the turnover number (kcat) in “purified protein [1]” came out at 10.0 ± 0.2 s⁻¹; in the data set “purified protein [2]”, 19.3 ± 0.9 s⁻¹; in “purified protein [3]”, 1492 ± 31 s⁻¹; in the data set “purified protein [4]”, 405 ± 4 s⁻¹.

The Km is the substrate concentration at which the rate is half of its maximum. What is called kcat is the maximal rate divided by the concentration of active sites.
